Experimental data from patent publication US20250171512A1.

B1: FGF21 N149-D155 deleted and replaced by GSHSG (SEQ ID NO: 144), Q9NSA1 29-209 (ligand)
chain: GHPIPDSSPLLQFGGQVRQRYLYTDDAQQTEAHLEIREDGTVGGAADQSPESLLQLKALKPGVIQILGVKTSRFLCQRPDGALYGSLHFDPEACSFRELLLEDGYNVYQSEAHGLPLHLPGGSHSGPAPRGPARFLPLPGLPPAPPEPPGILAPQPPDVGSSDPLSMVGPSQGRSPSYAS
B2: FGF21 N149-D155 deleted and replaced by GSGS (SEQ ID NO: 143), Q9NSA1 29-209 (ligand)
chain: GHPIPDSSPLLQFGGQVRQRYLYTDDAQQTEAHLEIREDGTVGGAADQSPESLLQLKALKPGVIQILGVKTSRFLCQRPDGALYGSLHFDPEACSFRELLLEDGYNVYQSEAHGLPLHLPGGSGSPAPRGPARFLPLPGLPPAPPEPPGILAPQPPDVGSSDPLSMVGPSQGRSPSYAS
B3: FGF21 N149-D155 deleted and replaced by ATTS (SEQ ID NO: 145), Q9NSA1 29-209 (ligand)
chain: GHPIPDSSPLLQFGGQVRQRYLYTDDAQQTEAHLEIREDGTVGGAADQSPESLLQLKALKPGVIQILGVKTSRFLCQRPDGALYGSLHFDPEACSFRELLLEDGYNVYQSEAHGLPLHLPGATTSPAPRGPARFLPLPGLPPAPPEPPGILAPQPPDVGSSDPLSMVGPSQGRSPSYAS
B4: FGF21 R163H (SEQ ID NO: 141), Q9NSA1 29-209 (ligand)
chain: GHPIPDSSPLLQFGGQVRQRYLYTDDAQQTEAHLEIREDGTVGGAADQSPESLLQLKALKPGVIQILGVKTSRFLCQRPDGALYGSLHFDPEACSFRELLLEDGYNVYQSEAHGLPLHLPGNKSPHRDPAPRGPAHFLPLPGLPPAPPEPPGILAPQPPDVGSSDPLSMVGPSQGRSPSYAS
B5: FGF21 P158H, R159H (SEQ ID NO: 142), Q9NSA1 29-209 (ligand)
chain: GHPIPDSSPLLQFGGQVRQRYLYTDDAQQTEAHLEIREDGTVGGAADQSPESLLQLKALKPGVIQILGVKTSRFLCQRPDGALYGSLHFDPEACSFRELLLEDGYNVYQSEAHGLPLHLPGNKSPHRDPAHHGPARFLPLPGLPPAPPEPPGILAPQPPDVGSSDPLSMVGPSQGRSPSYAS

Target: human FGFR1c together with human beta-Klotho (KLB), stably expressed on CHO Flp-In cells (human), P11362
Sequence (P11362 22-822, chain 1 of 2): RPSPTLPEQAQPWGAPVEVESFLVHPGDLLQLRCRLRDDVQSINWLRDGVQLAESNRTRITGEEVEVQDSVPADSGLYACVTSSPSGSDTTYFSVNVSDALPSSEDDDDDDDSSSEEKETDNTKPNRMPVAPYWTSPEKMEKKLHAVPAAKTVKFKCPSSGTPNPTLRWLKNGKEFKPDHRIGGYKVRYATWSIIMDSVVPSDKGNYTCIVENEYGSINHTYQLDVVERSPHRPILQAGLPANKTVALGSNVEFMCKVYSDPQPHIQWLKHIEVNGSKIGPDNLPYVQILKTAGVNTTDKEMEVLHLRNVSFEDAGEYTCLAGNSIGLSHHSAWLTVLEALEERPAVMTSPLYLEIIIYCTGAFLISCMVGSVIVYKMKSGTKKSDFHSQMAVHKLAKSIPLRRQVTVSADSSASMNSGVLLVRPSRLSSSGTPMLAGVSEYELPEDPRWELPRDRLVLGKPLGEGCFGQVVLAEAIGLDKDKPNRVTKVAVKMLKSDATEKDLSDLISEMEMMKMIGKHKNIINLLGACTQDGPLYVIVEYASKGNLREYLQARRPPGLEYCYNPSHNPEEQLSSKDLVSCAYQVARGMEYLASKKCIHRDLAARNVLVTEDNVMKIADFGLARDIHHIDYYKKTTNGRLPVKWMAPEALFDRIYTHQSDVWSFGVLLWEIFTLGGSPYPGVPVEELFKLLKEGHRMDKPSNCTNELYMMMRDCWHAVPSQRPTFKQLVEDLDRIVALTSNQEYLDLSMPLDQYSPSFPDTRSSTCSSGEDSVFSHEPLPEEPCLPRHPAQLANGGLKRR
Sequence (Q86Z14 whole entry, chain 2 of 2, further chain): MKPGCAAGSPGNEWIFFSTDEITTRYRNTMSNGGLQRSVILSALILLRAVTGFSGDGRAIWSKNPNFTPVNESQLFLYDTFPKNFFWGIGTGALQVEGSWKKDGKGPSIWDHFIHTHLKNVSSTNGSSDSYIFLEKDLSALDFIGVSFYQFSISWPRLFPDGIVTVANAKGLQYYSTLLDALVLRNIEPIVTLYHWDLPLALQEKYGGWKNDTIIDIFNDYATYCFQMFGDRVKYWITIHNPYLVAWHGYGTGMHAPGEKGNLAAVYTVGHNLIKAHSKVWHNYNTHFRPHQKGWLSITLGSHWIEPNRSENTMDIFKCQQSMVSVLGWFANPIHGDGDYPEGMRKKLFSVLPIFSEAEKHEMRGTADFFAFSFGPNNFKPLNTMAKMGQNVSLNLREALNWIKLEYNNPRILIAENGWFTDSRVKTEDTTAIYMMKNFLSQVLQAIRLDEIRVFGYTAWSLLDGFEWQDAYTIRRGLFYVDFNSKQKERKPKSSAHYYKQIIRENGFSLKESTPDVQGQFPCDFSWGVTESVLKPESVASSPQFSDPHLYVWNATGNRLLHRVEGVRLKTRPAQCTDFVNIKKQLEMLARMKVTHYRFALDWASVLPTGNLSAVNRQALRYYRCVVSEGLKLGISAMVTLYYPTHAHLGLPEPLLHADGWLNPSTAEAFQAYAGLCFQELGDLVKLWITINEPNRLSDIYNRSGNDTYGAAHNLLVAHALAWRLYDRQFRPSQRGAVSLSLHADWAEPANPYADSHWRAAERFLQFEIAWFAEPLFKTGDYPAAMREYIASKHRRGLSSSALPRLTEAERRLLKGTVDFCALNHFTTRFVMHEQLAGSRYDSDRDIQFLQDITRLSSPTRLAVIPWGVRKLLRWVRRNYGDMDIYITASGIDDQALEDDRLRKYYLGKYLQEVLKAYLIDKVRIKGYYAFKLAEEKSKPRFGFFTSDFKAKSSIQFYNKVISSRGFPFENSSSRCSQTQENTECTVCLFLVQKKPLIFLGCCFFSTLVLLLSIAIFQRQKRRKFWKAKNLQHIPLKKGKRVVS
Assay: cell-based or functional assay

Going from B1 to B2, the pERK ICW EC50 rises from 0.1 nmol/L to 0.28 nmol/L.

Compared with B3, B4 is higher in pERK ICW EC50: 0.02 nmol/L for the first, 0.39 nmol/L for the second.

B5 was tested, and the pERK ICW EC50 was 0.84 nmol/L.
